T1: SegB (SegBSs) (Saccharolobus (Sulfolobus) solfataricus P2), ORF:2e81311c
T1 sequence: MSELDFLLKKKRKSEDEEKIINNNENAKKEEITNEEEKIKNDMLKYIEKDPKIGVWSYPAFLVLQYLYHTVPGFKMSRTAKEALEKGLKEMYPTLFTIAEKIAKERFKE

T2: SegB (SegBSa) (Sulfolobus acidocaldarius, UniProt Q4JC57 1-151)
T2 sequence: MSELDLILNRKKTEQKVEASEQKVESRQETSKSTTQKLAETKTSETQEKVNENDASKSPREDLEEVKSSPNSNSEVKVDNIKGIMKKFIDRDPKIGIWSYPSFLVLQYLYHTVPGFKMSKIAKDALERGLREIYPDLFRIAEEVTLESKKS


Tests used:
[1] = system: T1, SegB (SegBSs) (Saccharolobus (Sulfolobus) solfataricus P2), ORF:2e81311c; assay: AFM; details: EMSA and footprint: 10 mM Tris-HCl pH 7.5, 50 mM KCl, 1 mM DTT, 5 mM MgCl2, 2.5% glycerol, 0.05% NP-40, 1 ug poly(dI-dC), 37 C, 20 min, DNA 1-5 nM
[2] = system: T1, SegB (SegBSs) (Saccharolobus (Sulfolobus) solfataricus P2), ORF:2e81311c; assay: EMSA; details: EMSA and footprint: 10 mM Tris-HCl pH 7.5, 50 mM KCl, 1 mM DTT, 5 mM MgCl2, 2.5% glycerol, 0.05% NP-40, 1 ug poly(dI-dC), 37 C, 20 min, DNA 1-5 nM
[3] = system: T1, SegB (SegBSs) (Saccharolobus (Sulfolobus) solfataricus P2), ORF:2e81311c; assay: DNase I footprinting; details: EMSA and footprint: 10 mM Tris-HCl pH 7.5, 50 mM KCl, 1 mM DTT, 5 mM MgCl2, 2.5% glycerol, 0.05% NP-40, 1 ug poly(dI-dC), 37 C, 20 min, DNA 1-5 nM
[4] = target: SegB (Saccharolobus solfataricus) (S. solfataricus); assay: MST; SegB labelled with NT-647 at 304 nM final; unlabelled SegA serially diluted 1:1 over fifteen tubes; 10 mM Tris-HCl pH 7.4, 100 mM NaCl, 0.05% Tween 20; 20% LED power, 40% MST power
SegB (SegBSa) = target: T2, SegB (SegBSa); assay: EMSA; EMSA and footprint: 10 mM Tris-HCl pH 7.5, 50 mM KCl, 1 mM DTT, 5 mM MgCl2, 2.5% glycerol, 0.05% NP-40, 1 ug poly(dI-dC), 37 C, 20 min; DNA 1-5 nM, SegB 0-1000; details: protein: recombinant; (pET22b NdeI/XhoI); chain copies: 2; label: 5' biotin on strand 1; blunt

Molecule	binding [2]	binding [3]	further results
AGTAAGATAAATTTACTGAAGTCGTTGTTTTGCCTACTCCTCCTTTCTGATTTATTACTGTGACTATCATGTCTAGACTCTTCTATCTATAACGTTTAATAAGGAATTCTACATGATAATACTGACGAGTCCACCATATTATAATGATAATATTTATATGCTAGATTTTTAAAAAGTATAAGTATGTTTGAGAAGCTCTATAGTGCAATAATTTATTCTGATGAATTTAAAAAAATACTATTGGGAAGAGGTGTAGATGACTTAGAGATAGCTTCAGCCTACATAGCGT (double strand) [289 bp segAB upstream fragment (sites 1, 2, 3)]	–	–	binding [1]: binds
CTCAGCTGTCGGTAATACGATTTAGAAAGGATGAAATCGCTTATTCAATTTACTCTAATAAGCGACTAGAGTCTATAAGAAACACTCTAGAGTATTCTACCATAGAGGGAGAAGGCTTATTCAATGGATGCATTCTATGCGGTAAATGTGTTAGTGTTTGCCCTTACGGTAAACAAACTAATGACGTATTCCATACTCCT (double strand) [peak B-3 fragment]	binds	binds	–
GAATGTCACAAGGTTCTTTTCCTATATACTTAAAACAAGAGAAAAGTAGAGAAATATTCTATTATACTCTCTTTTTCCTAAATTTTAATCTTAAACTTAAGGGAAGTAGAGTCTAGACTCACGTTAGGGTATGAAATTATCTCATCCTAATTTTTATTTGGCATAACGCTAATATGAAAAACATAAATAGTTAGAGTGTT (double strand) [peak D fragment]	binds	binds	–
GCATCTATGGCATCTGAATTGGGTATATAACCATATTCTACTTCTATTCCCATATCTTCATCACTAACGTAGAGATCAAGTAGTTTTCCTTTCTTCTCATACTCCACGAATACTCTATAGCCTAGACTCTTGAAGTAAGCAGATAATATTAATTGTAGACTGGAGTGGTTAATATTTGTGAATCCTAATTCATAAAAATC (double strand) [peak B-5 fragment]	binds	binds	–
GCTCGTAATTGAGGCCAAAATTCACAAAAATGATTACCTACAGACTCTAGAGTACTCTAAATATTTCAAGTACGGTATGGCAGTATTTCCATTTACTGGAGAGTGTAGAGTACCTAAAGGTTGGATTTGTATATTTAACACCACAAAGGATCAGTCTAGATTCTACTCTCTTCTTGAAGATTTATTATCTAGAGTTAAGT (double strand) [peak B-6 fragment]	binds	binds	–
SegA (Saccharolobus solfataricus) (natural protein)	–	–	Kd [4]: 46 nM
saci0204(-47) 50 bp oligonucleotide (dsDNA) DNA 1: TTATGAGAAGAATCTGAAATAAAGGGTATAGAGTTAAGAGTCTATATATG DNA 2: CATATATAGACTCTTAACTCTATACCCTTTATTTCAGATTCTTCTCATAA	–	–	binding result (SegB (SegBSa)): binds

From PMC12284271, “Coupling chromosome organization to genome segregation in Archaea”
